Experimental data: US20200317768A1 (published 2020)

T1: soluble mouse FcγRII, His-tagged (mouse, UniProt P08101 30-210, limits assumed)
T1 construct: Captured on the chip by an anti-His antibody
T1 sequence (looked up): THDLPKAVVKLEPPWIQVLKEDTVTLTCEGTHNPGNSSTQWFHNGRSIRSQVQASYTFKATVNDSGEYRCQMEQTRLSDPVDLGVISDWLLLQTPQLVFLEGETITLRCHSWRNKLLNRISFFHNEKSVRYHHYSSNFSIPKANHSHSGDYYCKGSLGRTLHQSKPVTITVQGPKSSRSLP

T2: human FcγRIIb constitutively expressed on MDCK cells (human, UniProt P31994 43-310)
T2 sequence (looked up): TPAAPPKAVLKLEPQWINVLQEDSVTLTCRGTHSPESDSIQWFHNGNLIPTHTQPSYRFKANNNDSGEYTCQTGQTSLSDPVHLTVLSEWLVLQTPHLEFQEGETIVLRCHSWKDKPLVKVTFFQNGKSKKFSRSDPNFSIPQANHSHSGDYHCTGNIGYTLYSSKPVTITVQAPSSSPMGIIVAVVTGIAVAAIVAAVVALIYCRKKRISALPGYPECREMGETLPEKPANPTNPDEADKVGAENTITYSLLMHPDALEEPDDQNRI


Assays:
[1] = molecular target: T1, soluble mouse FcγRII, His-tagged; assay: SPR, mouse FcgRII-His captured, antigen-antibody complex injected, pH7.4, 25C
Procedure: Regarding the produced Fc region variant-containing antibodies, binding assays between soluble mouse FcγRII and antigen-antibody complexes were performed using BIACORE® T200 (GE Healthcare). Soluble mouse FcγRII was produced in the form of a His-tagged molecule by a method known to those skilled in the art. An appropriate amount of an anti-His antibody was fixed onto Sensor chip CM5 (GE Healthcare) by the amine coupling method using a His capture kit (GE Healthcare) to capture mouse FcγRII. Next, an antibody-antigen complex and a running buffer (as a reference solution) were injected, and interaction was allowed to take place with the mouse FcγRII captured onto the sensor chip. 20 mM N-(2-Acetamido)-2-aminoethanesulfonic acid, 150 mM NaCl, 1.2 mM CaCl₂, and 0.05% (w/v) TWEEN, 20 at pH7.4 was used as the running buffer, and the respective buffer was also used to dilute the soluble mouse FcγRII. To regenerate the sensor chip, 10 mM glycine-HCl at pH1.5 was used. All measurements were carried out at 25° C. […] To calculate the parameters, the BIACORE® T100 Evaluation Software (GE Healthcare) was used.

[2] = molecular target: T2, human FcγRIIb constitutively expressed …; assay: cell-based or functional assay

Binder | biacore IC binding [1] | celluar uptake [2]
M103205H795-P1495m/M103202L889-SK1 (antibody, human IgG1, kappa) heavy: not shown light: DIVMTQSPATLSLSPGERATLSCTSSQSVYHANWLSWFQQKPGQPPKLLIYWASTLAYGVPSRFSGSGSGTDFTLTISSLQPEDAATYYCAGGYGGGRYAFGQGTKVEIKRTVAAPSVFIFPPSDEQLKSGTASVVCLLNNFYPREAKVQWKVDNALQSGNSQESVTEQDSKDSTYSLSSTLTLSKADYEKHKVYACEVTHQGLSSPVTKSFNRGEC | 1.3 relative to SG1 (=1.00) | 1.76 relative to SG1 (=1.00)
M103205H795-P1531m/M103202L889-SK1 (antibody, human IgG1, kappa) heavy: not shown light: DIVMTQSPATLSLSPGERATLSCTSSQSVYHANWLSWFQQKPGQPPKLLIYWASTLAYGVPSRFSGSGSGTDFTLTISSLQPEDAATYYCAGGYGGGRYAFGQGTKVEIKRTVAAPSVFIFPPSDEQLKSGTASVVCLLNNFYPREAKVQWKVDNALQSGNSQESVTEQDSKDSTYSLSSTLTLSKADYEKHKVYACEVTHQGLSSPVTKSFNRGEC | 1.01 relative to SG1 (=1.00) | 2.35 relative to SG1 (=1.00)
M103205H795-P1499m/M103202L889-SK1 (antibody, human IgG1, kappa, also called MS1032LO06-P1499m) heavy: not shown light: DIVMTQSPATLSLSPGERATLSCTSSQSVYHANWLSWFQQKPGQPPKLLIYWASTLAYGVPSRFSGSGSGTDFTLTISSLQPEDAATYYCAGGYGGGRYAFGQGTKVEIKRTVAAPSVFIFPPSDEQLKSGTASVVCLLNNFYPREAKVQWKVDNALQSGNSQESVTEQDSKDSTYSLSSTLTLSKADYEKHKVYACEVTHQGLSSPVTKSFNRGEC | 1.98 relative to SG1 (=1.00) | 3.61 relative to SG1 (=1.00)
M103205H795-P1498m/M103202L889-SK1 (antibody, human IgG1, kappa) heavy: not shown light: DIVMTQSPATLSLSPGERATLSCTSSQSVYHANWLSWFQQKPGQPPKLLIYWASTLAYGVPSRFSGSGSGTDFTLTISSLQPEDAATYYCAGGYGGGRYAFGQGTKVEIKRTVAAPSVFIFPPSDEQLKSGTASVVCLLNNFYPREAKVQWKVDNALQSGNSQESVTEQDSKDSTYSLSSTLTLSKADYEKHKVYACEVTHQGLSSPVTKSFNRGEC | 1.38 relative to SG1 (=1.00) | 1.56 relative to SG1 (=1.00)
M103205H795-P1523m/M103202L889-SK1 (antibody, human IgG1, kappa) heavy: not shown light: DIVMTQSPATLSLSPGERATLSCTSSQSVYHANWLSWFQQKPGQPPKLLIYWASTLAYGVPSRFSGSGSGTDFTLTISSLQPEDAATYYCAGGYGGGRYAFGQGTKVEIKRTVAAPSVFIFPPSDEQLKSGTASVVCLLNNFYPREAKVQWKVDNALQSGNSQESVTEQDSKDSTYSLSSTLTLSKADYEKHKVYACEVTHQGLSSPVTKSFNRGEC | 1.19 relative to SG1 (=1.00) | 1.91 relative to SG1 (=1.00)
M103205H795-P1497m/M103202L889-SK1 (antibody, human IgG1, kappa) heavy: not shown light: DIVMTQSPATLSLSPGERATLSCTSSQSVYHANWLSWFQQKPGQPPKLLIYWASTLAYGVPSRFSGSGSGTDFTLTISSLQPEDAATYYCAGGYGGGRYAFGQGTKVEIKRTVAAPSVFIFPPSDEQLKSGTASVVCLLNNFYPREAKVQWKVDNALQSGNSQESVTEQDSKDSTYSLSSTLTLSKADYEKHKVYACEVTHQGLSSPVTKSFNRGEC | 1.49 relative to SG1 (=1.00) | 1.38 relative to SG1 (=1.00)
M103205H795-P1532m/M103202L889-SK1 (antibody, human IgG1, kappa) heavy: not shown light: DIVMTQSPATLSLSPGERATLSCTSSQSVYHANWLSWFQQKPGQPPKLLIYWASTLAYGVPSRFSGSGSGTDFTLTISSLQPEDAATYYCAGGYGGGRYAFGQGTKVEIKRTVAAPSVFIFPPSDEQLKSGTASVVCLLNNFYPREAKVQWKVDNALQSGNSQESVTEQDSKDSTYSLSSTLTLSKADYEKHKVYACEVTHQGLSSPVTKSFNRGEC | 1.23 relative to SG1 (=1.00) | 4.16 relative to SG1 (=1.00)
M103205H795-P1527m/M103202L889-SK1 (antibody, human IgG1, kappa) heavy: not shown light: DIVMTQSPATLSLSPGERATLSCTSSQSVYHANWLSWFQQKPGQPPKLLIYWASTLAYGVPSRFSGSGSGTDFTLTISSLQPEDAATYYCAGGYGGGRYAFGQGTKVEIKRTVAAPSVFIFPPSDEQLKSGTASVVCLLNNFYPREAKVQWKVDNALQSGNSQESVTEQDSKDSTYSLSSTLTLSKADYEKHKVYACEVTHQGLSSPVTKSFNRGEC | 0.98 relative to SG1 (=1.00) | 0.92 relative to SG1 (=1.00)
M103205H795-P1496m/M103202L889-SK1 (antibody, human IgG1, kappa) heavy: not shown light: DIVMTQSPATLSLSPGERATLSCTSSQSVYHANWLSWFQQKPGQPPKLLIYWASTLAYGVPSRFSGSGSGTDFTLTISSLQPEDAATYYCAGGYGGGRYAFGQGTKVEIKRTVAAPSVFIFPPSDEQLKSGTASVVCLLNNFYPREAKVQWKVDNALQSGNSQESVTEQDSKDSTYSLSSTLTLSKADYEKHKVYACEVTHQGLSSPVTKSFNRGEC | 1.28 relative to SG1 (=1.00) | 1.69 relative to SG1 (=1.00)
M103205H795-P1525m/M103202L889-SK1 (antibody, human IgG1, kappa) heavy: not shown light: DIVMTQSPATLSLSPGERATLSCTSSQSVYHANWLSWFQQKPGQPPKLLIYWASTLAYGVPSRFSGSGSGTDFTLTISSLQPEDAATYYCAGGYGGGRYAFGQGTKVEIKRTVAAPSVFIFPPSDEQLKSGTASVVCLLNNFYPREAKVQWKVDNALQSGNSQESVTEQDSKDSTYSLSSTLTLSKADYEKHKVYACEVTHQGLSSPVTKSFNRGEC | 1.31 relative to SG1 (=1.00) | 3.55 relative to SG1 (=1.00)
M103205H795-P1526m/M103202L889-SK1 (antibody, human IgG1, kappa) heavy: not shown light: DIVMTQSPATLSLSPGERATLSCTSSQSVYHANWLSWFQQKPGQPPKLLIYWASTLAYGVPSRFSGSGSGTDFTLTISSLQPEDAATYYCAGGYGGGRYAFGQGTKVEIKRTVAAPSVFIFPPSDEQLKSGTASVVCLLNNFYPREAKVQWKVDNALQSGNSQESVTEQDSKDSTYSLSSTLTLSKADYEKHKVYACEVTHQGLSSPVTKSFNRGEC | 1.04 relative to SG1 (=1.00) | 1.2 relative to SG1 (=1.00)
M103205H795-P1530m/M103202L889-SK1 (antibody, human IgG1, kappa) heavy: not shown light: DIVMTQSPATLSLSPGERATLSCTSSQSVYHANWLSWFQQKPGQPPKLLIYWASTLAYGVPSRFSGSGSGTDFTLTISSLQPEDAATYYCAGGYGGGRYAFGQGTKVEIKRTVAAPSVFIFPPSDEQLKSGTASVVCLLNNFYPREAKVQWKVDNALQSGNSQESVTEQDSKDSTYSLSSTLTLSKADYEKHKVYACEVTHQGLSSPVTKSFNRGEC | 1.09 relative to SG1 (=1.00) | 3.12 relative to SG1 (=1.00)
M103205H795-P1529m/M103202L889-SK1 (antibody, human IgG1, kappa) heavy: not shown light: DIVMTQSPATLSLSPGERATLSCTSSQSVYHANWLSWFQQKPGQPPKLLIYWASTLAYGVPSRFSGSGSGTDFTLTISSLQPEDAATYYCAGGYGGGRYAFGQGTKVEIKRTVAAPSVFIFPPSDEQLKSGTASVVCLLNNFYPREAKVQWKVDNALQSGNSQESVTEQDSKDSTYSLSSTLTLSKADYEKHKVYACEVTHQGLSSPVTKSFNRGEC | 1.08 relative to SG1 (=1.00) | 2.86 relative to SG1 (=1.00)
M103205H795-P1500m/M103202L889-SK1 (antibody, human IgG1, kappa) heavy: not shown light: DIVMTQSPATLSLSPGERATLSCTSSQSVYHANWLSWFQQKPGQPPKLLIYWASTLAYGVPSRFSGSGSGTDFTLTISSLQPEDAATYYCAGGYGGGRYAFGQGTKVEIKRTVAAPSVFIFPPSDEQLKSGTASVVCLLNNFYPREAKVQWKVDNALQSGNSQESVTEQDSKDSTYSLSSTLTLSKADYEKHKVYACEVTHQGLSSPVTKSFNRGEC | 1.32 relative to SG1 (=1.00) | 1.82 relative to SG1 (=1.00)
M103205H795-P1501m/M103202L889-SK1 (antibody, human IgG1, kappa) heavy: not shown light: DIVMTQSPATLSLSPGERATLSCTSSQSVYHANWLSWFQQKPGQPPKLLIYWASTLAYGVPSRFSGSGSGTDFTLTISSLQPEDAATYYCAGGYGGGRYAFGQGTKVEIKRTVAAPSVFIFPPSDEQLKSGTASVVCLLNNFYPREAKVQWKVDNALQSGNSQESVTEQDSKDSTYSLSSTLTLSKADYEKHKVYACEVTHQGLSSPVTKSFNRGEC | 1.82 relative to SG1 (=1.00) | 2.4 relative to SG1 (=1.00)
M103205H795-P1528m/M103202L889-SK1 (antibody, human IgG1, kappa) heavy: not shown light: DIVMTQSPATLSLSPGERATLSCTSSQSVYHANWLSWFQQKPGQPPKLLIYWASTLAYGVPSRFSGSGSGTDFTLTISSLQPEDAATYYCAGGYGGGRYAFGQGTKVEIKRTVAAPSVFIFPPSDEQLKSGTASVVCLLNNFYPREAKVQWKVDNALQSGNSQESVTEQDSKDSTYSLSSTLTLSKADYEKHKVYACEVTHQGLSSPVTKSFNRGEC | 1.12 relative to SG1 (=1.00) | 3.02 relative to SG1 (=1.00)
M103205H795-P1524m/M103202L889-SK1 (antibody, human IgG1, kappa) heavy: not shown light: DIVMTQSPATLSLSPGERATLSCTSSQSVYHANWLSWFQQKPGQPPKLLIYWASTLAYGVPSRFSGSGSGTDFTLTISSLQPEDAATYYCAGGYGGGRYAFGQGTKVEIKRTVAAPSVFIFPPSDEQLKSGTASVVCLLNNFYPREAKVQWKVDNALQSGNSQESVTEQDSKDSTYSLSSTLTLSKADYEKHKVYACEVTHQGLSSPVTKSFNRGEC | 1.4 relative to SG1 (=1.00) | 3.66 relative to SG1 (=1.00)
M103205H795-P1522m/M103202L889-SK1 (antibody, human IgG1, kappa) heavy: not shown light: DIVMTQSPATLSLSPGERATLSCTSSQSVYHANWLSWFQQKPGQPPKLLIYWASTLAYGVPSRFSGSGSGTDFTLTISSLQPEDAATYYCAGGYGGGRYAFGQGTKVEIKRTVAAPSVFIFPPSDEQLKSGTASVVCLLNNFYPREAKVQWKVDNALQSGNSQESVTEQDSKDSTYSLSSTLTLSKADYEKHKVYACEVTHQGLSSPVTKSFNRGEC | 1.24 relative to SG1 (=1.00) | 2.13 relative to SG1 (=1.00)
